# Results taken from PMC9620489, “Insights into the structure and function of the histidine kinase ComP from Bacillus amyloliquefaciens based on molecular modeling” (Bioscience Reports, 2022).
# Molecular target: T1, ComPS (residues 563-763 of the histidine kinase ComP from Bacillus amyloliquefaciens Q-426) (Bacillus amyloliquefaciens Q-426)
# T1 construct: No removal of the 6xHis tag is described; The forward primer F-BaComPS has an NcoI site followed by AT, which may add Met-Asp before R563; also called BaComPS; truncated ComPS protein; source: E. coli BL21 (RIL), pPROEXHTa vector, purified (Ni-NTA)
# Assay: MST; microscale thermophoresis of ComPS with ComA; labelled partner, buffer and temperature not told in the text shown (curve in Supplementary Figure S8)
# Conditions: both partners purified
binder,measurement,value
response regulator ComA (natural protein) MKKILVIDDHPAVMEGTKTILETDTNLSVDCLSPDASEQFVLRHDFSAYDLILMDLNLGDDISGIELSKKILKENPLCKIIVYTGYEVEDYFEESIRAGLHGAISKTESKEKIMQYIYHVLNGQILVDFSYFKQLMTQQKTKTSSSPQSEQDRLTPRERHILQEVEKGLTNQEIADALHLSKRSIEYSLTSIFNKLNVGSRTEAVLIAKSDNVL,Kd,78 µM
